In assay [1] the target is DIP-δplasmin (active-site blocked δplasmin; recombinant plasmin containing the protease domain and the first kringle domain, treated with DFP). The assay can be described thus: SPR; Biacore T100, 25 °C; DIP-δplasmin or tPA amine-coupled to CM5 chip; analyte KD1-Y11T/L17R-K_(COOH) 100 to 2000 nM in HBS-P (20 mM HEPES pH 7.4, 100 mM NaCl, 0.005% P20), 10 µL/min, 6 min association, 10 min dissociation; regenerated with 20 mM EACA; 1:1 binding model, Kd = kd/ka.

Assay [2] addresses Tissue plasminogen activator (Alteplase) (UniProt P00750). The assay is described as above.
Assay [3] has as its target Human factor VIIa in complex with soluble tissue factor (sTF, residues 1-219) (UniProt P08709). The assay can be described thus: protease inhibition assay (residual amidolytic activity, tight-binding inhibitor fit); enzyme (plasmin 3 nM; FVIIa/sTF 20 nM; pKLK and FXIa 1 nM each) incubated with inhibitor (10^-1 to 2 x 10^3 nM; up to 3 µM in Figure 3B) for 1 h at room temperature in TBS pH 7.5 (50 mM Tris-HCl, 100 mM NaCl), 0.1 mg BSA/mL, 2 mM Ca2+; synthetic substrate added to 1 KM; Ki corrected for substrate.

For the next assay, the target named is Plasma kallikrein (UniProt P03952). The assay is described as above.
Assay [4] has as its target Purified human factor XIa (human) (UniProt P03951). The assay is described as above.
Assay [5] concerns the target Purified human plasmin (human). Described as above.

On to “KD1-Y11T/L17R-K_(COOH) (60-residue double mutant of human TFPI-2 Kunitz domain 1 with C-terminal IEK), expression host not stated for the experiment (domain or fragment)”, for which the Kd came out at 47.6 nM in assay [1] and 35.4 nM in assay [2]. Besides, the koff in assay [1] is 7.13e-05 s⁻¹; in assay [2], 0.000105 s⁻¹. In addition, the kon in assay [1] turned out to be 1490 M⁻¹ s⁻¹; in assay [2], 2910 M⁻¹ s⁻¹. In addition, the inhibitory constant (Ki) (in assay [3]; with Plasma kallikrein; in assay [4]) was greater than 3000 nM each time.

The substance “KD1-Y11T/L17R-K_(COOH) (60-residue double mutant of human TFPI-2 Kunitz domain 1 with C-terminal IEK), Pichia pastoris expressed (domain or fragment)” displayed a Ki in assay [5] of 0.59 nM.

With “KD1-Y11T/L17R-K_(COOH) (60-residue double mutant of human TFPI-2 Kunitz domain 1 with C-terminal IEK), E. coli expressed (domain or fragment)”, the Ki in assay [5] turned out to be 0.59 nM.

“Wild-type KD1 (Kunitz domain 1 of human tissue factor pathway inhibitor type-2) containing the IIa cleavage site (domain or fragment)” showed a Ki in assay [5] of 6 nM.

In assay [5], “KD1-L17R-K_(COOH) (60-residue single mutant of human TFPI-2 Kunitz domain 1 with C-terminal IEK), E. coli expressed (domain or fragment)” displayed a Ki of 0.9 nM.

The values above are taken from paper PMC7698382.
